Laboratory results from the RNAGym collection of RNA variant scans (doi:10.1073/pnas.2313332121).

B1: TPR t1 (parent)
chain: GACCAAUCUGCCCUCAGAGCUCGAGAACAUCUUCGGAUGCAGAGGAGGCAGGCUUCGGUGGCGCGAUAGCGCCAACGUCCUCAACCUCCAAUGCAUCCCACCACAUGAUGAUGCCUGAAGAGCCUUGGUUUUUUG

Variants of: B1
Assay: polymerase ribozyme fitness, log enrichment relative to wild type (log ratio); higher = more active; in vitro selection for triplet polymerase activity
Outline: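 Mutant libraries were PCR-built and transcribed for each subunit of a heterodimeric triplet polymerase ribozyme and selected for one round in triplicate at −7 °C, frozen, before gel excision of extended constructs and streptavidin-bead capture. Input and output libraries were Illumina-sequenced, keeping genotypes with ≥10 input reads and ≥1 read per output. Fitness is a logarithmic ratio of genotype to wild-type enrichment, in base 2, using inverse-variance-weighted replicate averages.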

Variant	polymerase ribozyme fitness (log ratio)
C62U C88A	-0.404
A91U G110C A121U	-5.81
C13A G93C	-2.4
G10C G45A C104A	-2.44
C3A G42U A46U C73A U112A	-2.77
C28G U32C G69C U78C C86G G117U C123U	-7.36
C56A A83G U129G	-2.3
A83U C99A G117C U129G	-5.87
C62G C104A	-4.04
A74U C82G C123U U131A U134C	0.478
A27C G36A G48U A84U G113C G117U C123G	-8.45
C8G A74C G120C	1.98
G42C U55A G113U G120U C123U U125A	-3.47
C8A C70U C72U	-0.317
C4U C15U G57U A100C	-4.18
A50U G60A C123G	1.09
C8G C70A	-0.64
G61C G69U	-1.37
A6G C76A C88G A121U G128A	-1.67
C15U A37U U55G C56U	-3.11
A66G C76G	-1.2
C40G G47U C49A	-3.74
C11G C20U G69U A84U C85U G122A U126G G128U	-2.39
C8A C72U U78A G93C C101A	-1.75

Variant	polymerase ribozyme fitness (log ratio)
G61C G135U	-2.53
C12A U14G C72U U81C G93C A119U G120C	-0.415
A5U G63U U133A	-2.34
C70G U129A	-4.27
C11G A41U G69C U81C	-4.06
U9G C86G A119U	0.167
A26U A46U C72U	-3.97
C15U G57U C72U C82A A111C A118G	-1.91
G36C C40A A74C G93C	-2.45
C3U C11A G47A G110U	-3.77
U54C G122A	-0.596
C49A G93C G110U U132C	-2.27
C49A C104G	-6.42
A66C C85A	-3.06
C12U U112A C115A	1.79
C31G C124A U129G	-6.34
A46U G71A C73A A91G	-5.51
G45A C53A U78C U109G G110U A121U	-3.1
A2U C20A G69U C70G	-5.15
U7C C15A A46U G48U U130C	-2.63
G61U U87C C99U C115G	-4.63
U33A C62U	-5.03
G69C C79G U109G	-6.78
C11U U59A C73A A91G A118U	-2.19

Variant	polymerase ribozyme fitness (log ratio)
C49G C62U C88A A95C U130G	-4.6
G63C A84G C94A	-3.04
A29G A91C	-1.57
G60A C86A U131C	-1.16
G36U G42C	-2.93
C20U C34A	-4.05
U96G A111U	-4.9
G45A C70G	-3.56
G19U G110U	-5.11
C3G C8A G113C G127C	-2.92
C40U C98A A121C	-4.03
G10A G39U	-0.557
C62U G110A	-1.23
A83G C86G A91C C94U U130A	-3.59
C15G G45C C53U A91U	-5.56
G51U G58C G113C	-5.43
G51U G52A C79A	-5.44
A5G A16U G61U A66C U129A	-3.64
A16G A50U C53A G63U A100C C114G A121C	-7.46
U125A G127C	-1.91
G42C U55A G71C G113U G120U C123U U125A	-5.08
C72U A100U A108G	-1.87
G61C G128C	-4.34
G44A G63A G122A	-2.73

Variant	polymerase ribozyme fitness (log ratio)
C72G C88U	-0.692
C64U G127U	-0.401
C8G C13A A18U G51U C56A U116C	-5.95
U78C A83U G117C A119U	-3.98
C62A A84G G117A	-5.26
G47U U112A	0.352
A74C C94U	-0.6
C12G U116A	-3.29
A18U A37C C82G U92C U116A A121G	-5.42
A16U U55C	-2.11
U7G C64U	0.622
C8G A46G G110A	-0.456
G47U U55C C101G	-2.84
C20U A50U U55G C76U U112C G127A	-4.02
G39A C40U	-1.56
C12U U33G	-5.61
G120U U133A	0.165
G10U C15U G69U A91C U125A	-3.03
U9A A43U A50C	-1.66
G69U C101A	-0.434
C13G C82A	-2.47
C56A A95C U106A C124U	0.424
C8U C79A	-0.138
C28G C53U C56U	-2.28

Variant	polymerase ribozyme fitness (log ratio)
U7A G122A	-0.674
C12G A46U C49A A95C	-2.16
C15A A37U C76U	-2.8
C4U G45U C124A	0.121
C11U G23A	-5.77
C13A G52U C70U	-2.88
C40U G120U	-0.132
A29U C31A G69A C104G G117C A121U	-7.2
U14A G71A	-2.77
U54A G61U U96C C99A	-5.82
A18C U116A	-3.4
C40U G57C G58A U116G	-3.95
C49U C124A	1.2
A27C G110A	-4.22
G10C C64U C123G U133A	1.47
U21A G61C	-1.97
C11G C49A	0.121
C40A A111U	-4.74
A26U U96A C97A C124U	-5.98
C8A G52A C72G	0.47
A43G C53A U109A A119G	-5.89
C3G C4A C40U C53A C70U C86A C98U U112A	-5.43
A46G C53A G127C	-1.2
G63C U81C	-0.941

Variant	polymerase ribozyme fitness (log ratio)
A18G G113U G128U U132A	-5.64
A6U C8A G71U C101G	-1.45
A46U G120A	-0.14
A6U A27G C82U G110U	-2.67
G48A G63U G113A	-2.17
U9G C88U	-0.0494
C73A G117C	-2.37
C8A C79U	0.419
C28A C88G	-4.25
C12A U21C C40U G42A A50C	-3.16
C13U G93A	-0.513
G61A U87C U126G	-1.59
C3U G58A	-0.199
C8U A16U G47A C56A C101A C124U	-1.44
C97A G117U	-5.67
A18G U21C G110A	-2.38
C72U C102A G128A	-4.14
U78C C89U C115A	-0.146
C53G A105C	-2.81
A26G U54A A108G	-4.49
U54A G61A	0.266
C8G U14G G35C C64U C94U C124G	-3.33
U9A A24G	-0.725
U38C C123A	-0.222

Variant	polymerase ribozyme fitness (log ratio)
C20A A68G U78C C123U	-4.98
A2G U106G U125G	-2.92
U21C G71U	-0.75
A26U C124A	-0.634
G69C C88G	-2.63
U9A G19U C88A C114A	1.72
U87G U106A A108C	-2.16
C49G C89A A111C A118C U129A U134G	-5.22
A6U C56U C72U	0.0866
G10U U92A A111G	-4.02
C31A U54A C89A A121U	-7.04
C13G G39U G63U C115U	-5.78
C70U C73G A105U	-4.61
C15U G39A C98U	-3.87
C3A G10U U129C	-1.94
U33A U116C	-6.14
C64A U112C	-4.53
A46G C49U C86A G93A	-2.56
A50C G69C C104U	-1.11
G45U G127U	-3
C34A	-2.52
C8U G42U G48U C79A G122A U132A	-4.72
G61C G117U	-4.38
